From FireProtDB (doi:10.1016/j.bpc.2006.10.013)

B1: Rubredoxin, P24297 (parent)
chain: MAKWVCKICGYIYDEDAGDPDNGISPGTKFEELPDDWVCPICGAPKSEFEKLED
B2: Rubredoxin, P00268 (parent)
chain: MKKYTCTVCGYIYNPEDGDPDNGVNPGTDFKDIPDDWVCPLCGVGKDQFEEVEE

Columns and labels:
[1] = variants of: B1; details: Pyrococcus furiosus (strain ATCC 43587 / DSM 3638 / JCM 8422 / Vc1), pH 9.08, Thermal, NMR, Sodium borate 100 mM, reversible: Yes, structure 1BRF, whole UniProt chain shown
[2] = variants of: B2; details: Clostridium pasteurianum, pH 9.08, Thermal, NMR, Sodium borate 100 mM, reversible: Yes, structure 1IRO, whole UniProt chain shown

Row | Variant | Tm [1] [°C] | heat capacity change of unfolding [1] [kcal/mol/K] | unfolding enthalpy (van 't Hoff) [1] [kcal/mol] | ddG of mutation (higher = less stable) ([1]; 133.6 °C) [kcal/mol] | heat capacity change of unfolding ([1]; 133.6 °C) [kcal/mol/K] | ddG of mutation (higher = less stable) ([2]; 107 °C) [kcal/mol] | heat capacity change of unfolding ([2]; 107 °C) [kcal/mol/K] | Tm [2] [°C] | ddG of mutation (higher = less stable) [2] [kcal/mol] | heat capacity change of unfolding [2] [kcal/mol/K] | unfolding enthalpy (van 't Hoff) [2] [kcal/mol]
1 | MAKWVCKICGYIYDEDAGDPDNGVSPGTKFEEIPDDWVCPICGAPKSEFEKLED | 133 | 0.5 | 62 | – | – | – | – | – | – | – | –
2 | MAKWVCKICGYIYDEDAGDPDNGISPGTKFEEIPDDWVCPICGAPKSEFEKLED | – | – | – | 0.88 | 0.5 | – | – | – | – | – | –
3 | MAKWVCKICGYIYDEDAGDPDNGVSPGTKFEELPDDWVCPICGAPKSEFEKLED | 136 | 0.5 | 74 | – | 0.5 | – | – | – | – | – | –
4 | MKKYTCTVCGYIYNPEDGDPDNGINPGTDFKDIPDDWVCPLCGVGKDQFEEVEE | – | – | – | – | – | -0.36 | 0.5 | 110 | -0.36 | 0.5 | 59
5 | MKKYTCTVCGYIYNPEDGDPDNGVNPGTDFKDLPDDWVCPLCGVGKDQFEEVEE | – | – | – | – | – | -0.76 | 0.5 | 112 | -0.76 | 0.5 | 64
6 | MKKYTCTVCGYIYNPEDGDPDNGINPGTDFKDLPDDWVCPLCGVGKDQFEEVEE | – | – | – | – | – | – | – | 115 | -1.31 | 0.5 | 65
7 | MKKWTCTVCGYIYNPEDGDPDNGINPGTDFKDLPDDWVCPLCGVGKDQFEEVEE | – | – | – | – | – | – | – | 114 | – | 0.5 | 63
